In US20240228986A1, “ENGINEERED CELLS, ENZYMES, AND METHODS FOR PRODUCING CANNABINOIDS” (priority 2021, published 2024):

Tests used:
Assay type in all cases: cell-based, Yarrowia
olivetolic acid [1] = test: Unfused rMPTs and APTs, CBGA/FCBGA formation in vivo assay (Example 4); settings: 2 mM olivetolic acid, 48 h quench
Method: (§1) As described below, plasmids pCL-SE-0380 (MPT4), pCL-SE-0337.MPT4, pCL-SE-0338.APT73.74, and pCL-SE-0338.APT73.77 were transformed into strain sCL-SE-0128. Multiple colonies per transformation were precultured for 48 h in YNB containing glucose (2%), casamino acids (0.5%), and MES (100 mM pH 6.5). Pre-culture was used to inoculate assay medium comprised of YNB containing glucose (2%), casamino acids (0.5%), MES (100 mM pH 6.5), and olivetolic acid or divarinic acid (2 mM). Cultures were quenched with equal volume of ethanol after 48 h total growth and assayed for CBG(V)A and FCBG(V)A. Averages and standard deviations were calculated from replicates.
(§2) Overnight YPD (10 g/L yeast extract, 20 g/L peptone, 2% dextrose) cultures were inoculated from glycerol stocks of the appropriate strain and grown at 30° C. with 250 rpm shaking. Once cultures had reached an OD600 of 4-6, cultures were centrifuged at 500×g for 5 min, supernatants were discarded, and cell pellets were resuspended in equal volume of water. Resuspended cells were centrifuged at 500×g for 5 min, supernatants were discarded, and cells were resuspended in a volume (75 μL×OD×Vculture) of transformation cocktail (45% PEG-400, 0.1 M LiAc, 0.1 M DTT, and 25 ug/100 μL SS Salmon Sperm DNA). For each transformation, >1 μg of plasmid DNA was added to 55 μL cells/transformation cocktail and vortexed for 2 s. Transformations were incubated at 39° C. for 1 h with 250 rpm shaking. Transformations were resuspended in 750 μL YPD with 1 M sorbitol and recovered at 30° C. overnight with 250 rpm shaking. The next day, transformations were centrifuged at 500×g for 5 min, supernatants were discarded, and cell pellets were resuspended in 750 YPD. Resuspended transformations were plated on YPD with appropriate selection or YNBD (6.71 g/L yeast nitrogen base+nitrogen, 0.5% casamino acids, 2% dextrose) agar plates and grown at 30° C. for 2 days. Individual colonies were patched onto YPD plates with appropriate selection or YNBD plates and grown at 30° C. overnight. Patches were used to inoculate 0.5 mL YPD with appropriate selection or YNBD precultures in 96 w blocks and grown at 30° C. for 24-48 h with 1000 rpm shaking. For assays, 0.5 mL YPD with appropriate selection or YNBD cultures containing substrate were inoculated with 2 μL from precultures and grown at 30° C. for 2-4 days with 1000 rpm shaking with 2% glucose added every 24 h. Assay cultures were quenched by addition of 0.5 mL ethanol with 0.2% formic acid and 0.5 mg/mL pentyl-benzoic acid. Precipitates were pelleted by centrifuging at 4600×g for 10 min and then 200 μL was transferred to fresh plates, sealed, and analyzed via HPLC.
(§3) All samples were quenched with equal volume of EtOH containing 0.2 mg/mL internal standard (3,5-Diisopropyl-2-hydroxybenzoic acid CAS #2215-21-6) centrifuged, and clarified solutions were analyzed by HPLC-MS
(§4) • Column: 2.1×50 mm COSMOCORE PBr (Nacalai USA, Inc.) • Mobile Phase: A; 0.1% formic acid in water, B; 0.1% formic acid in acetonitrile • Flow: 0.45 mL/min • Temp: % 50 Celsius • Gradient: 20%B at 0 min, 70%B at 2.3 min, 89% B at 4.2 min, 20% B at 4.3 min, 20%B at 6 min

divarinic acid [2] = test: Unfused rMPTs and APTs, CBGVA/FCBGVA formation in vivo assay (Example 4); settings: 2 mM divarinic acid, 2% glucose, 48 hour quench; strain sCL-SE-0128
Method: as §1, §2, §3, §4

olivetolic acid [3] = test: Linkers for GPS1.1-MPT4 fusions, in vivo assay (Example 6); settings: 1 mM olivetolic acid, 72 h quench
Method: (§5) As described in detail below, plasmids pCL-SE-0380 (MPT4), pCL-SE-0406, pCL-SE-0435, and pCL-SE-0437 were transformed into strain sCL-SE-0128. Four separate colonies per transformation were precultured for 24 h in YNB containing glycerol (2%), casamino acids (0.5%), and MES (100 mM pH 6.5). Pre-culture was used to inoculate assay medium comprised of YNB containing glycerol (2%), casamino acids (0.5%), MES (100 mM pH 6.5), and olivetolic acid (1 mM). Cultures were quenched after 72 h total growth by mixing with equal volume of EtOH. Enzymes produced CBGA and FCBGA. Averages and standard deviations were calculated from replicates.
However, sCL-SE-0128 expresses HMGR and GPS1.1 to increase intracellular GPP levels for prenylation of OA to CBGA. The plasmids that were transformed contain either a gene expressing a prenyl-transferase (pCL-SE-0380 (MPT4)) or a gene expressing a fusion between GPS1.1 and a prenyl-transferase with different linker sequences.
as §2, §3, §4

olivetolic acid [4] = test: MPT fusions with GPS1.1 vs unfused MPTs, OA feed (Example 8, Table 9); settings: 2 mM olivetolic acid, 48 h quench
Method: as §1, with “plasmids pCL-SE-0406, pCL-SE-0664, pCL-SE-0663, pCL-SE-0662,” for “plasmids”, “pCL-SE-0337.MPT21, pCL-SE-0337.MPT26,” for “pCL-SE-0337.MPT4, pCL-SE-0338.APT73.74,”, “pCL-SE-0337.MPT31” for “pCL-SE-0338.APT73.77”, “acid” for “acid or divarinic acid”, “CBGA” for “CBG(V)A”, “FCBGA.” for “FCBG(V)A.”
as §2, §3, §4

divarinic acid [5] = test: MPT fusions with GPS1.1 vs unfused MPTs, DVA feed (Example 9, Table 11); settings: 2 mM divarinic acid, 2% glucose, quenched after 48 h; strain sCL-SE-0128
Method: as §1, with “plasmids pCL-SE-0406, pCL-SE-0664, pCL-SE-0663, pCL-SE-0662,” for “plasmids”, “pCL-SE-0337.MPT21,” for “pCL-SE-0337.MPT4, pCL-SE-0338.APT73.74, and pCL-SE-0338.APT73.77”, “and” for “and olivetolic acid or”, “quenched” for “quenched with equal volume of ethanol”, “CBGVA” for “CBG(V)A”, “FCBGVA.” for “FCBG(V)A.”
as §2, §3, §4

olivetolic acid [6] = test: Fusions of different GPSs with MPT4, in vivo assay (Example 7); settings: 1 mM olivetolic acid, 72 h quench; for CBGA / FCBGA: 2% glycerol, strain sCL-SE-0128; for CBGA/FCBGA: product ratio
Method: as §5, with “described” for “described in detail”, “pCL-SE-0337, 0406, 0452” for “pCL-SE-0380 (MPT4), pCL-SE-0406, pCL-SE-0435,”, “0453” for “pCL-SE-0437”, “Multiple” for “Four separate”, “and assayed for” for “by mixing with equal volume of EtOH. Enzymes produced”, “F-CBGA.” for “FCBGA.”
However, sCL-SE-0128 expresses HMGR and GPS1.1 to increase intracellular GPP levels for prenylation of OA to CBGA. The plasmids that were transformed contain a gene expressing a fusion between two different GPSs and a prenyl-transferase. The same linker is used for all constructs. […] Additionally, as illustrated by GPS2 (pCL-SE-0453), certain GPS-MPT combinations result in very high CBGA/ FCBGA ratios.
as §2, §3, §4

[7] = 2% glycerol, strain sCL-SE-0128

B1: MPT4: membrane-bound prenyltransferase, SEQ ID NO: 2, comparator (protein)
chain: MSDNSIATKILNFGHTCWKLQRPYVVKGMISIACGLFGRELFNNRHLFSWGLMWKAFFALVPILSFNFFAAIMNQIYDVDIDRINKPDLPLVSGEMSIETAWILSIIVALTGLIVTIKLKSAPLFVFIYIFGIFAGFAYSVPPIRWKQYPFTNFLITISSHVGLAFTSYSATTSALGLPFVWRPAFSFIIAFMTVMGMTIAFAKDISDIEGDAKYGVSTVATKLGARNMTFVVSGVLLLNYLVSISIGIIWPQVFKSNIMILSHAILAFCLIFQTRELALANYASAPSRQFFEFIWLLYYAEYFVYVFI
modifications: MPT4 (membrane-bound prenyltransferase)
CBGA (olivetolic acid [1]; 2% glucose, strain sCL-SE-0128): 123 ± 13 µM | FCBGA (olivetolic acid [1]; 2% glucose, strain sCL-SE-0128): 23 ± 2 µM | CBGA/FCB (olivetolic acid [1]; product ratio): 5.3 | CBGVA (divarinic acid [2]): 19 ± 2 µM | FCBGVA (divarinic acid [2]): 0 ± 0 µM | CBGA (olivetolic acid [3]; [7]): 230 ± 15 µM | FCBGA (olivetolic acid [3]; [7]): 51 ± 1 µM | CBGA/FCBGA (olivetolic acid [3]; product ratio): 4.5 | CBGA (olivetolic acid [4]; 2% glucose, strain sCL-SE-0128): 123 ± 13 µM | FCBGA (olivetolic acid [4]; 2% glucose, strain sCL-SE-0128): 23 ± 2 µM | CBGA/FCBGA (olivetolic acid [4]; product ratio): 5.3 | CBGVA (divarinic acid [5]): 19 ± 2 µM | FCBGVA (divarinic acid [5]): 0 ± 0 µM

B2: GPS2-F11-MPT4: fusion protein, SEQ ID NO: 21 (protein)
chain: MKDVSLSSFDAHDLDLDKFPEVVRDRLTQFLDAQELTIADIGAPVTDAVAHLRSFVLNGGKRIRPLYAWAGFLAAQGHKNSSEKLESVLDAAASLEFIQACALIHDDIIDSSDTRRGAPTVHRAVEADHRANNFEGDPEHFGVSVSILAGDMALVWAEDMLQDSGLSAEALARTRDAWRGMRTEVIGGQLLDIYLESHANESVELADSVNRFKTAAYTIARPLHLGASIAGGSPQLIDALLHYGHDIGIAFQLRDDLLGVFGDPAITGKPAGDDIREGKRTVLLALALQRADKQSPEAATAIRAGVGKVTSPEDIAVITEHIRATGAEEEVEQRISQLTESGLAHLDDVDIPDEVRAQLRALAIRSTERRMGGAEAAAKEAAAKAGGSGGGSGGGGSGGSGGGGSGGGGSMSDNSIATKILNFGHTCWKLQRPYVVKGMISIACGLFGRELFNNRHLFSWGLMWKAFFALVPILSFNFFAAIMNQIYDVDIDRINKPDLPLVSGEMSIETAWILSIIVALTGLIVTIKLKSAPLFVFIYIFGIFAGFAYSVPPIRWKQYPFTNFLITISSHVGLAFTSYSATTSALGLPFVWRPAFSFIIAFMTVMGMTIAFAKDISDIEGDAKYGVSTVATKLGARNMTFVVSGVLLLNYLVSISIGIIWPQVFKSNIMILSHAILAFCLIFQTRELALANYASAPSRQFFEFIWLLYYAEYFVYVFI
modifications: GPS2-F11-MPT4, geranyl diphosphate synthase, membrane-bound prenyltransferase fusion protein
CBGA (olivetolic acid [6]): 282 ± 69 µM | FCBGA (olivetolic acid [6]): 11 ± 2 µM | CBGA/FCBGA (olivetolic acid [6]): 26.8

B3: GPS3-F11-MPT4: fusion protein, SEQ ID NO: 20 (protein)
chain: MQLLNPPQKGKKAVEFDFNKYMDSKAMTVNEALNKAIPLRYPQKIYESMRYSLLAGGKRVRPVLCIAACELVGGTEELAIPTACAIEMIHTMSLMHDDLPCIDNDDLRRGKPTNHKIFGEDTAVTAGNALHSYAFEHIAVSTSKTVGADRILRMVSELGRATGSEGVMGGQMVDIASEGDPSIDLQTLEWIHIHKTAMLLECSVVCGAIIGGASEIVIERARRYARCVGLLFQVVDDILDVTKSSDELGKTAGKDLISDKATYPKLMGLEKAKEFSDELLNRAKGELSCFDPVKAAPLLGLADYVAFRQNGGAEAAAKEAAAKAGGSGGGSGGGGSGGSGGGGSGGGGSMSDNSIATKILNFGHTCWKLQRPYVVKGMISIACGLFGRELFNNRHLFSWGLMWKAFFALVPILSFNFFAAIMNQIYDVDIDRINKPDLPLVSGEMSIETAWILSIIVALTGLIVTIKLKSAPLFVFIYIFGIFAGFAYSVPPIRWKQYPFTNFLITISSHVGLAFTSYSATTSALGLPFVWRPAFSFIIAFMTVMGMTIAFAKDISDIEGDAKYGVSTVATKLGARNMTFVVSGVLLLNYLVSISIGIIWPQVFKSNIMILSHAILAFCLIFQTRELALANYASAPSRQFFEFIWLLYYAEYFVYVFI
modifications: GPS3-F11-MPT4, geranyl diphosphate synthase, membrane-bound prenyltransferase fusion protein
CBGA (olivetolic acid [6]): 255 ± 22 µM | FCBGA (olivetolic acid [6]): 41 ± 3 µM | CBGA/FCBGA (olivetolic acid [6]): 6.2
